Experimental data as given in PMC6199149.

Assays:
[1] = biological target: recombinant Wt nuclear dUTPase with N-terminal hexahistidine tag, from E. coli (human); settings: scale: pmol of dUTP per minute per ng of protein
[2] = biological target: nuclear dUTP nucleotidohydrolase (nuclear isoform of dUTPase), endogenous (human (endogenous in U-2 OS, Saos2, A549, 18Co, HeLa)); test: cross-linking
[3] = biological target: nuclear dUTP nucleotidohydrolase (nuclear isoform of dUTPase), endogenous (human (endogenous in U-2 OS, Saos2, A549, 18Co, HeLa)); test: non-reducing SDS-PAGE with western blot

Row | dUTPase enzymatic assay (37°C, 5 min, no reducing agent) [1] | Substance | stoichiometry N [2] | stoichiometry N [3]
1 | 7.27 | recombinant Wt nuclear dUTPase with N-terminal hexahistidine tag, from E. coli (enzyme) | – | –
2 | – | nuclear dUTP nucleotidohydrolase (nuclear isoform of dUTPase), endogenous (enzyme) | 2 | 2
